The record followed here is patent CN105622755A (1ST AFFILIATED HOSPITAL OF 3RD MILITARY MEDICAL UNIV PLA, dated 2016).

The target in assay [1] is T1, 前列腺特异性膜抗原 (PSMA) on LNCaP cells (UniProt Q04609 1-750, limits assumed).
T1 construct: whole, on cells; Endogenous PSMA on fixed LNCaP cells; also called prostate specific membrane antigen; LNCaP细胞(表达PSMA)
The experiment in a line: cell ELISA (OD450) and immunofluorescence on fixed LNCaP cells (PSMA+) against MKN45 cells (PSMA-), anti-M13 detection. On the technique in general: An ELISA detects its analyte on a solid surface through an enzyme-linked reagent.

The next assay concerns the target T2, 重组表达的PSMA胞外区蛋白 (UniProt Q04609 44-750, limits assumed).
T2 construct: extracellular domain; also called 前列腺特异性膜抗原膜外区; PSMA抗原; not shown: His tag (purified with HisTrap FF Crude, detected with anti-His antibody)
The experiment in a line: indirect phage-ELISA, PSMA extracellular region coated at 5 μg/mL, HRP-anti-M13 detection.

T2 sequence (Q04609 44-750 limits assumed): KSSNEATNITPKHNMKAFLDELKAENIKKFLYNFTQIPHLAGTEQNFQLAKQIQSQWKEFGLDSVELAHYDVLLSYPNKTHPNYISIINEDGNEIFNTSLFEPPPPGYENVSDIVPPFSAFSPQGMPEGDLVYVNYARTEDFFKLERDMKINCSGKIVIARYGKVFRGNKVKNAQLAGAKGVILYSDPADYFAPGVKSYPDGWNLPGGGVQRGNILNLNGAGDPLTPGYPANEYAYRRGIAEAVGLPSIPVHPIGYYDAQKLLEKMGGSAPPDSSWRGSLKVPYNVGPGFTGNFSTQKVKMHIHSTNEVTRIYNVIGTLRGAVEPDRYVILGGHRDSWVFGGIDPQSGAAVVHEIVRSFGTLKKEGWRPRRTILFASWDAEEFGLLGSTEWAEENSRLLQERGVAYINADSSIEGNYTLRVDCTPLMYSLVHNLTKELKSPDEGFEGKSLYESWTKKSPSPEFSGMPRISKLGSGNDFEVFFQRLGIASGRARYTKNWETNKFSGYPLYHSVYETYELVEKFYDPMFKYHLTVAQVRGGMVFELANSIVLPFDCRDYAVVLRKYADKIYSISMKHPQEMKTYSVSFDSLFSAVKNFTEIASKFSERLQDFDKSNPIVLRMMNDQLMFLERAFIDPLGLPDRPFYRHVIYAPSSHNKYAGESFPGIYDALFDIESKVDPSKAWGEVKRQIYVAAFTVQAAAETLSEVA
T1 sequence (Q04609 whole entry): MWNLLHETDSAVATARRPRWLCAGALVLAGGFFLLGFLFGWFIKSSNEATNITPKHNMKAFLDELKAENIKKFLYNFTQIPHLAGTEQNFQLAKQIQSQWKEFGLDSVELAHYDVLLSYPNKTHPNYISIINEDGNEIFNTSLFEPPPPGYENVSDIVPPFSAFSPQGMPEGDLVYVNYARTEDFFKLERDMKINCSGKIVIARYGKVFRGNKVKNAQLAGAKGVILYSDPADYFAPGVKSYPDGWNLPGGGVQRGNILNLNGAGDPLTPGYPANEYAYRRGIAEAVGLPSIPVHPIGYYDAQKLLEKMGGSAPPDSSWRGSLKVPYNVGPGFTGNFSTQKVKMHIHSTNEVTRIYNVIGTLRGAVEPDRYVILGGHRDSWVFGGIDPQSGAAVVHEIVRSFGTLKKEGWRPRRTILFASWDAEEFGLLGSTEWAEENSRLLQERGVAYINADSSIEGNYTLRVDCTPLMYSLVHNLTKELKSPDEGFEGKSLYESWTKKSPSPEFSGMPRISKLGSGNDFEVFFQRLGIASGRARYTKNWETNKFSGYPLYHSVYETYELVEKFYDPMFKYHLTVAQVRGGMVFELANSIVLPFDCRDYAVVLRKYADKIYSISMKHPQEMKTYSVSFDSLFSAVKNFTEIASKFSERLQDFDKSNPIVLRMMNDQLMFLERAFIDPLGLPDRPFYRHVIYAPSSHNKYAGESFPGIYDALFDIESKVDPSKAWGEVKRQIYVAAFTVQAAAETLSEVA

B1: 抗前列腺特异性膜抗原单域重链抗体噬菌体阳性克隆 (VHH)
VHH: QVQLVESGGGLVQAGDSLRLSCAASRRTFSFMAWYRQAPGKQRELVAAITSGGRNTNYADSVKGRFTISRDNAKNTMYLQMNSLKPEDTAVYYCNAAARWNNYWGQGTPVTVSS
notes: The phage coat protein fusion and any linker are not described; Selected from a naive camelid VHH phage display library; also called 针对前列腺特异性膜抗原的单域重链抗体阳性克隆; 展示本发明所述纳米抗体的噬菌体克隆
Turning to B1, the binding result (in assay [1]; in the assay with 重组表达的PSMA胞外区蛋白) was “binds” each time.
